Test results reported in patent US20040214995A1 (published 2004).
Like-named read-outs stand apart in the source and are kept apart here.

Legend:
[1] = biological target: T1, HLA-A2.1 (heavy chain with human beta 2-microglobulin) (human)
[2] = biological target: T1, HLA-A2.1 (heavy chain with human beta …); remark: listed apart in the source

Binder: LLDGTATLRL [gp100 peptide G10-4 (LLDGTATLRL)]
- IC50 [1]: 483 nM
- Ratio to Standard [1]: 0.01

Binder: ATWGQYWQV [G9-154-1A]
- IC50 [2]: 5.2 nM

Binder: FTWGQYWQV [G9-154-1F]
- IC50 [2]: 1.6 nM

Binder: LLWGQYWQV [G9-154-1L2L]
- IC50 [2]: 1.6 nM

Binder: KTYGQYWQV [G9-154-3Y]
- IC50 [2]: 30 nM

Binder: LTWGQYWQV [G9-154-1L]
- IC50 [2]: 3.4 nM

Binder: KLWGQYWQV [G9-154-2L]
- IC50 [2]: 2 nM

Binder: KIWGQYWQV [G9-154-2I]
- IC50 [2]: 3 nM

Binder: WTWGQYWQV [G9-154-1W]
- IC50 [2]: 60 nM

Binder: ALWGQYWQV [G9-154-1A2L]
- IC50 [2]: 2.3 nM

Binder: KMWGQYWQV [G9-154-2M]
- IC50 [2]: 6.5 nM

Binder: WLWGQYWQV [G9-154-1W2L]
- IC50 [2]: 2.8 nM

Binder: YLWGQYWQV [G9-154-1Y2L]
- IC50 [2]: 1.7 nM

Binder: FLWGQYWQV [G9-154-1F2L]
- IC50 [2]: 2.6 nM

Binder: KTFGQYWQV [G9-154-3F]
- IC50 [2]: 21 nM

Binder: YTWGQYWQV [G9-154-1Y]
- IC50 [2]: 2.5 nM

Binder: VLYRYGSFSV [gp100 peptide G10-5 (VLYRYGSFSV)]
- IC50 [1]: 13 nM
- Ratio to Standard [1]: 0.38
